Measured values taken from patent US20050037961A1 (BAYLOR COLLEGE OF MEDICINE, published 2005).
Values belong to the binder of their own block, whether it stands above or below them.

B2: FLAG-tagged rat CRP2 (αMHC-CRP2 transgene) (other, UniProt Q62908 1-193, looked up, not shown: small tags and cut ends)
chain: MPVWGGGNKCGACGRTVYHAEEVQCDGRTFHRCCFLCMVCRKNLDSTTVAIHDEEIYCKSCYGKKYGPKGYGYGQGAGTLNMDRGERLGIKPESAQPHRPTTNPNTSKFAQKYGGAEKCSRCGDSVYAAEKIIGAGKPWHKNCFRCAKCGKSLESTTLTEKEGEIYCKGCYAKNFGPKGFGYGQGAGALVHAQ
notes: Expressed in cardiomyocytes of transgenic mice and assayed in nuclear and cytoplasmic heart extracts; also called FLAG-CRP2; FLAG-tagged CRP2

Legend:
GST-SRF = target: T1, GST-SRF (human, UniProt P11831 1-508); assay: GST-SRF pull-down of 35S-labelled in vitro translated protein
T1 construct: also called GST-SRF fusion protein; not shown: glutathione S-transferase encoded by vector pGEX-2T
T1 sequence (looked up): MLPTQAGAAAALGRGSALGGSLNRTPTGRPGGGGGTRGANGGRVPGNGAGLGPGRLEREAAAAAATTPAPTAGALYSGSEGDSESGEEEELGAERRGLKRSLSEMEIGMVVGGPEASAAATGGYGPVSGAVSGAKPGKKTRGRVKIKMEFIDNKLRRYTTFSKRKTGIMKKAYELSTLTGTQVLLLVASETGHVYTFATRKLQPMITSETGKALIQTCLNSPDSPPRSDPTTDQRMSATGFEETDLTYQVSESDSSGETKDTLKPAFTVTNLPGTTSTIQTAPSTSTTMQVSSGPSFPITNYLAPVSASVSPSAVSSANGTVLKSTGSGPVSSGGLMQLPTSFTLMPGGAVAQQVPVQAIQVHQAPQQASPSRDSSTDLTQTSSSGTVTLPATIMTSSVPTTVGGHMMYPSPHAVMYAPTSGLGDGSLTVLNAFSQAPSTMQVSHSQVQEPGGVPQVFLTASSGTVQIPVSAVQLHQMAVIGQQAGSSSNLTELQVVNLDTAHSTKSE

[1] = target: T2, endogenous SRF (αMHC-CRP2 mouse heart nuclear extract) (mouse, UniProt Q9JM73 1-504); assay: co-IP from nuclear extracts of αMHC-CRP2 transgenic mouse hearts, immunoblot
T2 sequence (looked up): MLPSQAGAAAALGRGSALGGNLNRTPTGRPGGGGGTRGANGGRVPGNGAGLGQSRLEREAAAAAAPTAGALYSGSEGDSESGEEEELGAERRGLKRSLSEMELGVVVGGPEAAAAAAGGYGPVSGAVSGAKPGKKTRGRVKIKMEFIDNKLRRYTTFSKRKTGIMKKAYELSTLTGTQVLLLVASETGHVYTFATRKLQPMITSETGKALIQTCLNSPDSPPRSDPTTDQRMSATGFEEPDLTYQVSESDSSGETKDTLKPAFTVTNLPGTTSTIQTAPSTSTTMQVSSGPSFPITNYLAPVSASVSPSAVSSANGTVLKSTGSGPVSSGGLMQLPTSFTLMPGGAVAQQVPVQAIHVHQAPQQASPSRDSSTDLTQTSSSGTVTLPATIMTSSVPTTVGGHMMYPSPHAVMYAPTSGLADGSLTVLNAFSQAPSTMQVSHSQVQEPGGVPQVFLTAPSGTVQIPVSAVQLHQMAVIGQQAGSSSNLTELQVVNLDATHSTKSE

[2] = target: endogenous GATA6 (αMHC-CRP2 mouse heart nuclear extract) (mouse, UniProt Q61169 1-589, limits assumed); assay: co-IP from nuclear extracts of αMHC-CRP2 transgenic mouse hearts
[3] = target: T2, endogenous SRF (αMHC-CRP2 mouse heart …); assay: as above
[4] = target: B2; assay: as above

endogenous GATA6 (αMHC-CRP2 mouse heart nuclear extract), sequence (Q61169 whole entry): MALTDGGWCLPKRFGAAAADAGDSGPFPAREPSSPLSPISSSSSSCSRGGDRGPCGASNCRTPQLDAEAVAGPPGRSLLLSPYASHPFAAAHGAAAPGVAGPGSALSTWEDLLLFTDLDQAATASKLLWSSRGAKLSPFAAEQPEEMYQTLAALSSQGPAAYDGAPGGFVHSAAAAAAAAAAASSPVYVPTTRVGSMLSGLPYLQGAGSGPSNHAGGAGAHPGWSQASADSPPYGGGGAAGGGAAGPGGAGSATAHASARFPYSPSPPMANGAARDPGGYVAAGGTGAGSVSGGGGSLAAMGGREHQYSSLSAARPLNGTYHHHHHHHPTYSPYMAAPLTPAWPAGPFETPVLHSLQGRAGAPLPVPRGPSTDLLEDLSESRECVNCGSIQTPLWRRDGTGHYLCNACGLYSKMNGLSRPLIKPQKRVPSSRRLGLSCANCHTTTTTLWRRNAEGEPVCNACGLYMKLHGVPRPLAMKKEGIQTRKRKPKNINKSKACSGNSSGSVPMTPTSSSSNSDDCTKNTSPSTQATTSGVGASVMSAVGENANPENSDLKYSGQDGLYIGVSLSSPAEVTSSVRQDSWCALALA

binding result (GST-SRF): no binding
B1: CRP2ZF2+ZF3 (aa 35-145) (other, rat, UniProt Q62908 35-145, looked up, not shown: small tags and cut ends)
chain: FLCMVCRKNLDSTTVAIHDEEIYCKSCYGKKYGPKGYGYGQGAGTLNMDRGERLGIKPESAQPHRPTTNPNTSKFAQKYGGAEKCSRCGDSVYAAEKIIGAGKPWHKNCFR
notes: range 35-145; also called C2ZF2+ZF3

Binder: B2
binding result [1]: binds

binding result [2]: no binding | binding result [3]: no binding | binding result [4]: no binding
B3: Id1, endogenous cardiac bHLH transcription factor (other, mouse, UniProt P20067 1-168, looked up)
chain: MKVASGSAAAAAGPSCSLKAGRTAGEVVLGLSEQSVAISRCAGTRLPALLDEQQVNVLLYDMNGCYSRLKELVPTLPQNRKVSKVEILQHVIDYIRDLQLELNSESEVGTTGGRGLPVRAPLSTLNGEISALAAEVRSESEYYIILQWETEATGGGCPPSLLFRRIAI
